Drawing on patent US20260123609A1, this text covers percentage of positive cells for two substances.

Experiment [1] deals with mouse CD98HC (NP_001154885.1) (mouse) (UniProt P10852). Briefly: flow cytometry, spleen B cells (mCD45+ mCD19+) of wild-type C57BL/6 mouse. On the technique in general: Flow cytometry measures light scatter and fluorescence of single cells or particles in a stream.
For experiment [2] the target is unchanged. As to the kind of experiment: flow cytometry, spleen T cells (mCD45+ mTCR β+) of wild-type C57BL/6 mouse.
Experiment [3] addresses humanized CD98HC protein (human/mouse chimeric (human amino acids 215-630 of SEQ ID NO: 2 in place of mouse amino acids 147-565 of SEQ ID NO: 1)) (UniProt P08195). As to the kind of experiment: flow cytometry, spleen B cells (mCD45+ mCD19+) of CD98HC humanized homozygous mouse (H/H).
Chain of UniProt P08195 (P08195 other isoform, or with tags, fused parts or gaps mutant limits assumed): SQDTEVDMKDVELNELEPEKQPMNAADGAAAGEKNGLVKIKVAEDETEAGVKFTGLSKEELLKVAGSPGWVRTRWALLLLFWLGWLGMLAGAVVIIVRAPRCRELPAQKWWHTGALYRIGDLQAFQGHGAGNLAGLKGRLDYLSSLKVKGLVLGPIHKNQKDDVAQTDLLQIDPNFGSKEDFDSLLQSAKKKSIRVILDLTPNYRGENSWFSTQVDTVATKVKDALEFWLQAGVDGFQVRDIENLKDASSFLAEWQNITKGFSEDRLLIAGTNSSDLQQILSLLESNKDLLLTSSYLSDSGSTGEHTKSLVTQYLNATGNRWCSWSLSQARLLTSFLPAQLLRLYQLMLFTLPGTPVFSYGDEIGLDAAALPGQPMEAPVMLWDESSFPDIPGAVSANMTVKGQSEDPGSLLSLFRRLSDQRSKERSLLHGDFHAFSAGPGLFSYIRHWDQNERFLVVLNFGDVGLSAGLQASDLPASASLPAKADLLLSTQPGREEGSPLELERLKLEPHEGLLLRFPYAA
For experiment [4] the target is unchanged. Briefly: flow cytometry, spleen T cells (mCD45+ mTCR β+) of CD98HC humanized homozygous mouse (H/H).

Chain of UniProt P10852 (P10852 other isoform, or with tags, fused parts or gaps): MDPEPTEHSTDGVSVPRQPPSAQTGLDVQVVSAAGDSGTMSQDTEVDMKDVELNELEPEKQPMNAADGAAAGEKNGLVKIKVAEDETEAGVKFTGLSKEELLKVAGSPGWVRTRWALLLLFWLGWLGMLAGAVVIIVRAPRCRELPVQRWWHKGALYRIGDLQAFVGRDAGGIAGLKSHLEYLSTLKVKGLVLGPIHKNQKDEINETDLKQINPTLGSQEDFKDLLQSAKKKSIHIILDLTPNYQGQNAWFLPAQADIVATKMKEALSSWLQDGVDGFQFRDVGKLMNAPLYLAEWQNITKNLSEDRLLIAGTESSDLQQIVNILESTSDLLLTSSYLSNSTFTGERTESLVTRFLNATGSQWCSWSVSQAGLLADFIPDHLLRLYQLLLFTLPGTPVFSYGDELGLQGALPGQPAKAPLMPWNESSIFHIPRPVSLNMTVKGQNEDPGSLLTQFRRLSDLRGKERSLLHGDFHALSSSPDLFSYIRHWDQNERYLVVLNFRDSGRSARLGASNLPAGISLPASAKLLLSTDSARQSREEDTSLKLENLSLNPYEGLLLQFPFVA

For “FITC anti-human CD98 Antibody (Biolegend, Catalog number: 315603)”, the percentage of positive cells is 0.82% in experiment [1], 0.45% in experiment [2], 27.1% in experiment [3] and 27.6% in experiment [4].

As to “APC anti-mouse CD98 (4F2) Antibody (Biolegend, Catalog number: 128211)”, the percentage of positive cells in experiment [1] turned out to be 17.2%; in experiment [2] it was 14.7%; in experiment [3], 0.3%; in experiment [4], 0.27%.
